Paper PMC9340783, “Development of a fully human anti‐GITR antibody with potent antitumor activity using H2L2 mice” (FEBS Open Bio, 2022)

T1: cynoGITR on 293F‐cynoGITR cells (Macaca fascicularis)
T1 construct: also called 293F‐cGITR
T1 chain: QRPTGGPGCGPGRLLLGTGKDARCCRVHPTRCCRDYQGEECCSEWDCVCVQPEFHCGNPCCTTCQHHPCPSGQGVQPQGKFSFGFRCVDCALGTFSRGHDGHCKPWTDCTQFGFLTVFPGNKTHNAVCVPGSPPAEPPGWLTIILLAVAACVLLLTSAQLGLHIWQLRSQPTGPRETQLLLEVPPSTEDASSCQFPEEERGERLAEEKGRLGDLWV

T2: cynoGITR ECD hFc (Macaca fascicularis)
T2 construct: cynomolgus GITR, extracellular domain, Gln20-Glu155, NCBI XP_005545180.1; also called cynoGITR protein; cGITR; source: FreeStyle 293F, transiently transfected, purified by protein A
T2 chain: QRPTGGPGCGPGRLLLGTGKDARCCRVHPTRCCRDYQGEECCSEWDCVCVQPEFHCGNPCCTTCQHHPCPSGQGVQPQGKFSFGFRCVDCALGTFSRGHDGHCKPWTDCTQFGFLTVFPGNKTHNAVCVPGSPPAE

B1: mAb019 (antibody, V domains shown)
VH: QVQLVESGGGVVQPGRSLRLSCAASGFTFSSYGMHWVRQAPGKGLEWVAVIWYAGSRKFYADSVEGRFTISRDNSKNTLYLQMSSVRPEDTAVYYCARGGSLDGGFFYYGMDVWGQGTTVTVSS
VL: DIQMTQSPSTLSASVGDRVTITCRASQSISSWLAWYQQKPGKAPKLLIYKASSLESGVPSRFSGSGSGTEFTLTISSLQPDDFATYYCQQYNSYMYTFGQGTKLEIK
notes: as the VH of m12 (hab019 was made from the variable regions of mAb019); as the VL of m12; Human-murine chimeric antibody from H2L2 mice: human variable regions, rat constant regions; source: hybridoma cell culture supernatant, purified (Protein A)
B2: hab019 (antibody, V domains shown)
VH: QVQLVESGGGVVQPGRSLRLSCAASGFTFSSYGMHWVRQAPGKGLEWVAVIWYAGSRKFYADSVEGRFTISRDNSKNTLYLQMSSVRPEDTAVYYCARGGSLDGGFFYYGMDVWGQGTTVTVSS
VL: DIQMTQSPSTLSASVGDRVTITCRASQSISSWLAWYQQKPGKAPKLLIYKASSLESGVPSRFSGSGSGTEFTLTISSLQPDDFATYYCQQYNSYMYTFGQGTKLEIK
notes: 3503‐hab019‐VH; 3503‐hab019‐Vk; Whole antibody, human IgG1 heavy chain constant region, human kappa light chain constant region; source: FreeStyle 293F, transiently co-transfected, purified from culture supernatant
B3: hab019e3 (antibody, V domains shown)
VH: QVQLVESGGGVVQPGRSLRLSCAASGFTFSSYGMHWVRQAPGKGLEWVAVIWYAGSRKFYADSVEGRFTISRDNSKNTLYLQMNSLRAEDTAVYYCARGGSLDAGFFYYGMDVWGQGTTVTVSS
VL: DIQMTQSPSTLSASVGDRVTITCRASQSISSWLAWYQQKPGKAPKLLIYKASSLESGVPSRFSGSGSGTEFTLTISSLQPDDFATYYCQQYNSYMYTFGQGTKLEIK
notes: 3503‐hab019‐VH(DA + NLA); positions not given; as the VL of m12 (3503‐hab019‐Vk); Whole antibody, human IgG1 heavy chain constant region, human kappa light chain constant region; source: FreeStyle 293F, transiently co-transfected, purified from culture supernatant
B4: hab019e1 (antibody, V domains shown)
VH: QVQLVESGGGVVQPGRSLRLSCAASGFTFSSYGMHWVRQAPGKGLEWVAVIWYAGSRKFYADSVEGRFTISRDNSKNTLYLQMNSLRAEDTAVYYCARGGSLDGGFFYYGMDVWGQGTTVTVSS
VL: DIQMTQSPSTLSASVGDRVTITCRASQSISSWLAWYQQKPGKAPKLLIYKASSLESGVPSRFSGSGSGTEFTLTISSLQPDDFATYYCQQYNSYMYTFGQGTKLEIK
notes: 3503‐hab019‐VH(DG + NLA); positions not given; as the VL of m12 (3503‐hab019‐Vk); Whole antibody, human IgG1 heavy chain constant region, human kappa light chain constant region; source: FreeStyle 293F, transiently co-transfected, purified from culture supernatant
B5: mAb070 (antibody, V domains shown)
VH: QVQLVESGGGVVQPGRSLRLSCAASGFTFSSYGMHWVRQAPGKGLEWVAVIWYETSNKFYVDSVKGRFTISRDNSKNTLYLQMNSLRAEDTAVYYCARYGASSGWYWYFDLWGRGTLVTVSS
VL: DIQLTQSPSFLSASVGDRVTITCRASQGISSFLAWYQQKPGKAPKLLIYAASTLQSGVPSRFSGSGSGTEFTLTISSLQPEDFATYCCQQLNSYPFTFGQGTKLEIK
notes: as the VH of m14; as the VL of m14; Human-murine chimeric antibody from H2L2 mice: human variable regions, rat constant regions; source: hybridoma cell culture supernatant, purified (Protein A)
B6: hab064 (antibody, V domains shown)
VH: QVQLVESGGGVVQPGRSLRLSCAASGFTFSSYGMHWVRQAPGKGLEWVAVIWYETSNKYYADSVKGRFTISRDNSKNTLYLQMNNLRAEDTAVYYCARYGGNSGWYWYFDLWGRGTLVTVSS
VL: DIQLTQSPSFLSASVGDRVTITCRASQGISSFLAWYQQKPGTAPKLLIYAASTLQSGVPSRFSGSGSGTEFTLTISSLQPEDFATYCCQQLNSYPFTFGQGTKLEIK
notes: 3503‐hab064‐VH; 3503‐hab064‐Vk; Whole antibody, human IgG1 heavy chain constant region, human kappa light chain constant region; source: FreeStyle 293F, transiently co-transfected, purified from culture supernatant
B7: hab064e1 (antibody, V domains shown)
VH: QVQLVESGGGVVQPGRSLRLSCAASGFTFSSYGMHWVRQAPGKGLEWVAVIWYETSNKYYADSVKGRFTISRDNSKNTLYLQMNSLRAEDTAVYYCARYGGNSGWYWYFDLWGRGTLVTVSS
VL: DIQLTQSPSFLSASVGDRVTITCRASQGISSFLAWYQQKPGKAPKLLIYAASTLQSGVPSRFSGSGSGTEFTLTISSLQPEDFATYYCQQLNSYPFTFGQGTKLEIK
notes: 3503‐hab064‐VH(N2S); the substitution is against the VH of m13; position not given; 3503‐hab064‐Vk(T2K/C2Y); the substitutions are against the VL of m13; positions not given; Whole antibody, human IgG1 heavy chain constant region, human kappa light chain constant region; source: FreeStyle 293F, transiently co-transfected, purified from culture supernatant
B8: hab076e1 (antibody, V domains shown)
VH: QVQLVESGGGVVQPGRSLRLSCAASGFTFSSYGMHWVRQAPGKGLEWVAVIWYETSNKYYADSVKGRFTISRDNSKNTLYLQMNSLRAEDTAVYYCARYGASSGWYWYFDLWGRGTLVTVSS
VL: DIQLTQSPSFLSASVGDRVTITCRASQGISSYLAWYQQKPGKAPKLLIYAASTLQSGVPSRFSGSGSGTEFTLTISSLQPEDFATYYCQQLNSYPFTFGQGTKLEIK
notes: as the VH of m15 (3503‐hab076‐VH); 3503‐hab076‐Vk(C2Y); the substitution is against the VL of m15 (Cys in FR3 of VL); position not given; Whole antibody, human IgG1 heavy chain constant region, human kappa light chain constant region; source: FreeStyle 293F, transiently co-transfected, purified from culture supernatant
B9: mAb064 (antibody, V domains shown)
VH: QVQLVESGGGVVQPGRSLRLSCAASGFTFSSYGMHWVRQAPGKGLEWVAVIWYETSNKYYADSVKGRFTISRDNSKNTLYLQMNNLRAEDTAVYYCARYGGNSGWYWYFDLWGRGTLVTVSS
VL: DIQLTQSPSFLSASVGDRVTITCRASQGISSFLAWYQQKPGTAPKLLIYAASTLQSGVPSRFSGSGSGTEFTLTISSLQPEDFATYCCQQLNSYPFTFGQGTKLEIK
notes: as the VH of m13; as the VL of m13; Human-murine chimeric antibody from H2L2 mice: human variable regions, rat constant regions; source: hybridoma cell culture supernatant, purified (Protein A)
B10: mAb076 (antibody, V domains shown)
VH: QVQLVESGGGVVQPGRSLRLSCAASGFTFSSYGMHWVRQAPGKGLEWVAVIWYETSNKYYADSVKGRFTISRDNSKNTLYLQMNSLRAEDTAVYYCARYGASSGWYWYFDLWGRGTLVTVSS
VL: DIQLTQSPSFLSASVGDRVTITCRASQGISSYLAWYQQKPGKAPKLLIYAASTLQSGVPSRFSGSGSGTEFTLTISSLQPEDFATYCCQQLNSYPFTFGQGTKLEIK
notes: as the VH of m15; as the VL of m15; Human-murine chimeric antibody from H2L2 mice: human variable regions, rat constant regions; source: hybridoma cell culture supernatant, purified (Protein A)

Assays:
[1] = target: T3, human GITR on 293F‐hGITR cells (Homo sapiens (Human)., UniProt Q9Y5U5-1); assay: cell-based or functional assay
T3 sequence (Q9Y5U5 26-241): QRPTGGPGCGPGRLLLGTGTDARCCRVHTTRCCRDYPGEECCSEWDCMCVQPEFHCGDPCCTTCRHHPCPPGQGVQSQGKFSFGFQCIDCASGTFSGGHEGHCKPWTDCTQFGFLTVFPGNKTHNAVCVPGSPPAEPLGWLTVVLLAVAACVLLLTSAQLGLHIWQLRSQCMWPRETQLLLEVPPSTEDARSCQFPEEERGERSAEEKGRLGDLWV

[2] = target: T3, human GITR on 293F‐hGITR cells; assay: flow cytometry on cells; 293F‐hGITR or 293F‐cynoGITR cells incubated with antibodies at 4 °C for 1 h, fluorescent anti-rat/human secondary antibody; EC50 of MFI curve; conditions: one partner purified
[3] = target: T1, cynoGITR on 293F‐cynoGITR cells; assay: as above; conditions: one partner purified
[4] = target: T4, hGITR ECD hFc (Homo sapiens (Human)., UniProt Q9Y5U5, Thr45Ala); assay: ELISA; indirect ELISA; antigen hFc fusion protein coated on 96-well plates (1 μg·mL^−1 overnight at 4 °C in Fig. 3B), antibody added, detected with anti-rat IgG/hIgG-peroxidase antibody; conditions: both partners purified
T4 construct: human GITR (glucocorticoid-induced TNF receptor-related), extracellular domain, Gln26-Glu161 with Thr45Ala, UniProt Q9Y5U5.1; also called human GITR protein; source: FreeStyle 293F, transiently transfected, purified by protein A

[5] = target: T2, cynoGITR ECD hFc; assay: as above; conditions: both partners purified
[6] = target: T4, hGITR ECD hFc; assay: SPR; Biacore T200; hGITR ECD hFc immobilised on a Series S CM5 chip; antibody 0, 3.125, 6.25, 12.5, 25 and 50 nM; association 180 s, dissociation 600 s; conditions: both partners purified

| Binder | NF‐ĸB luciferase reporter assay, Crosslinking, EC50 [1] [nM] | NF‐ĸB luciferase reporter assay, Crosslinking, Top ratio [1] [fold] | NF‐ĸB luciferase reporter assay, No crosslinking, Top ratio [1] [fold] | EC50 [2] [nM] | EC50 [3] [nM] | EC50 [4] [nM] | EC50 [5] [nM] | NF‐ĸB luciferase reporter assay, No crosslinking, EC50 [1] [nM] | Kd [6] [nM] |
| --- | --- | --- | --- | --- | --- | --- | --- | --- | --- |
| B1 | 12.5 | 11 | 20 | 0.163 | 0.011 | 0.008 | 0.007 | – | – |
| B2 | 8.66 | 13 | 10 | 0.244 | 0.304 | 0.103 | 0.092 | 0.265 | 0.401 |
| B3 | 8.75 | 14 | 9 | 0.215 | 0.277 | 0.098 | 0.089 | 0.269 | – |
| B4 | 9.46 | 12 | 8 | 0.181 | 0.287 | 0.082 | 0.079 | 0.26 | – |
| B5 | > 0.09 | 7 | 10 | 0.358 | 0.198 | 0.022 | 0.025 | 0.062 | – |
| B6 | 7.13 | 12 | 10 | 0.165 | 0.22 | 0.106 | 0.108 | 0.177 | 0.592 |
| B7 | 9.26 | 12 | 11 | 0.235 | 0.313 | 0.093 | 0.096 | 0.264 | – |
| B8 | 5.16 | 13 | 8 | 0.195 | 0.26 | 0.087 | 0.094 | 0.264 | – |
| B9 | 0.101 | 7 | 10 | 0.385 | 0.404 | 0.038 | 0.035 | > 0.2 | – |
| B10 | > 0.27 | 8 | 14 | 0.152 | 0.226 | 0.01 | 0.012 | > 0.09 | – |
